Reference: patent US20240101642A1

Target: phosphopeptide-ligated β2AR with a deletion of the third intracellular loop (β2ARppΔ238-267), in HDL particles (human), P07550
Assay: cell-based or functional assay

B1: β-arrestin1, minimal cysteine and truncated variant of rat βarr1 (βarr1-MC-393), P29066 1-393 (protein, UniProt P29066 1-393, looked up)
chain: MGDKGTRVFKKASPNGKLTVYLGKRDFVDHIDLVDPVDGVVLVDPEYLKERRVYVTLTAAFRYGREDLDVLGLTFRKDLFVANVQSFPPAPEDKKPLTRLQERLIKKLGEHAYPFTFEIPPNLPSSVTLQPGPEDTGKAIGVDYEVKAFVAENLEEKIHKRNSVRLVIRKVQYAPERPGPQPTAETTRQFLMSDKPLHLEASLDKEIYYHGEPISVNVHVTNNTNKTVKKIKISVRQYADIVLFNTAQYKVPVAMEEADDTVAPSSTFSKVYTLTPFLANNREKRGLALDGKLKHEDTNLASSTLLREGANREILGIIVSYKVKVKLVVSRGGLLGDLASSDVAVELPFTLMHPKPKEEPPHREVPESETPVDTNLIELDTNDDDIVFEDFAR
  fold increase of agonist affinity by the transducer: 10 fold
  log IC50 of isoproterenol (ISO), competition radioligand binding, in the presence of βarr1 (no transducer: -6.91+/-0.04): -7.63 log
